B1: 2K2A (parent)
chain: ELREAFRLYDKEGNGYISTDVMREILAELDETLSSEDLDAMIDEIDADGSGTVDFEEFMGVMT

Variants of: B1
Assay: folding stability dG (cDNA display proteolysis); higher = more stable
Details: PBS, room temperature

Row | Variant | folding stability dG [kcal/mol]
1 | ELREAFRLYDKEGNGYISTDVMREILAELDETLSSEDLDAMIDEIDPDGSGTVDFEEFMGVMT [A47P] | 1.92
2 | ELREAFRLYDKEGNGYISTDVMREILAELDETLSSEDLDAMIDEIDTDGSGTVDFEEFMGVMT [A47T] | 1.84
3 | ELREAFRLYDKEGNGYISTDVMREILAELDETLSSEDLDAMIDEIDVDGSGTVDFEEFMGVMT [A47V] | 1.91
4 | ELREAFRLYDKEGNGYISTDVMREILAELDETLSSEDLDAMIDEIDWDGSGTVDFEEFMGVMT [A47W] | 1.96
5 | ELREAFRLYDKEGNGYISTDVMREILAELDETLSSEDLDAMIDEIDYDGSGTVDFEEFMGVMT [A47Y] | 1.62
6 | ELREAFRLYDKEGNGYISTDVMREILAELDETLSSEDLDAMIDEIDSDGSGTVDFEEFMGVMT [A47S] | 1.8
7 | ELREAFRLYDKEGNGYISTDVMREILAELDETLSSEDLDAMIDEIDKDGSGTVDFEEFMGVMT [A47K] | 2.2
8 | ELREAFRLYDKEGNGYISTDVMREILAELDETLSSEDLDAMIDEIDLDGSGTVDFEEFMGVMT [A47L] | 1.78
9 | ELREAFRLYDKEGNGYISTDVMREILAELDETLSSEDLDAMIDEIDIDGSGTVDFEEFMGVMT [A47I] | 1.86
10 | ELREAFRLYDKEGNGYISTDVMREILAELDETLSSEDLDAMIDEIDGDGSGTVDFEEFMGVMT [A47G] | 1.57
11 | ELREAFRLYDKEGNGYISTDVMREILAELDETLSSEDLDAMIDEIDFDGSGTVDFEEFMGVMT [A47F] | 1.69
12 | ELREAFRLYDKEGNGYISTDVMREILAELDETLSSEDLDAMIDEIDMDGSGTVDFEEFMGVMT [A47M] | 1.64
13 | ELREAFRLYDKEGNGYISTDVMREILAELDETLSSEDLDAMIDEIDHDGSGTVDFEEFMGVMT [A47H] | 1.96
14 | ELREAFRLYDKEGNGYISTDVMREILAELDETLSSEDLDAMIDEIDNDGSGTVDFEEFMGVMT [A47N] | 1.62
15 | ELREAFRLYDKEGNGYISTDVMREILAELDETLSSEDLDAMIDEIDRDGSGTVDFEEFMGVMT [A47R] | 2.06
16 | ELREAFRLYDKEGNGYISTDVMREILAELDETLSSEDLDAMIDEIDQDGSGTVDFEEFMGVMT [A47Q] | 1.93
17 | ELREAFRLYDKEGNGYISTDVMREILAELDETLSSEDLDAMIDEIDADGSITVDFEEFMGVMT [G51I] | 0.064
18 | ELREAFRLYDKEGNGYISTDVMREILAELDETLSSEDLDAMIDEIDADGSKTVDFEEFMGVMT [G51K] | 1.27
19 | ELREAFRLYDKEGNGYISTDVMREILAELDETLSSEDLDAMIDEIDADGSHTVDFEEFMGVMT [G51H] | 1.39
20 | ELREAFRLYDKEGNGYISTDVMREILAELDETLSSEDLDAMIDEIDADGSETVDFEEFMGVMT [G51E] | 0.622
21 | ELREAFRLYDKEGNGYISTDVMREILAELDETLSSEDLDAMIDEIDADGSDTVDFEEFMGVMT [G51D] | 0.686
22 | ELREAFRLYDKEGNGYISTDVMREILAELDETLSSEDLDAMIDEIDADGSLTVDFEEFMGVMT [G51L] | 0.92

Row | Variant | folding stability dG [kcal/mol]
23 | ELREAFRLYDKEGNGYISTDVMREILAELDETLSSEDLDAMIDEIDADGSFTVDFEEFMGVMT [G51F] | 0.853
24 | ELREAFRLYDKEGNGYISTDVMREILAELDETLSSEDLDAMIDEIDADGSMTVDFEEFMGVMT [G51M] | 1.15
25 | ELREAFRLYDKEGNGYISTDVMREILAELDETLSSEDLDAMIDEIDADGSNTVDFEEFMGVMT [G51N] | 1.18
26 | ELREAFRLYDKEGNGYISTDVMREILAELDETLSSEDLDAMIDEIDADGSPTVDFEEFMGVMT [G51P] | -0.745
27 | ELREAFRLYDKEGNGYISTDVMREILAELDETLSSEDLDAMIDEIDADGSCTVDFEEFMGVMT [G51C] | 0.991
28 | ELREAFRLYDKEGNGYISTDVMREILAELDETLSSEDLDAMIDEIDADGSATVDFEEFMGVMT [G51A] | 0.849
29 | ELREAFRLYDKEGNGYISTDVMREILAELDETLSSEDLDAMIDEIDADRSGTVDFEEFMGVMT [G49R] | 1.95
30 | ELREAFRLYDKEGNGYISTDVMREILAELDETLSSEDLDAMIDEIDADLSGTVDFEEFMGVMT [G49L] | 1.29
31 | ELREAFRLYDKEGNGYISTDVMREILAELDETLSSEDLDAMIDEIDADTSGTVDFEEFMGVMT [G49T] | 0.928
32 | ELREAFRLYDKEGNGYISTDVMREILAELDETLSSEDLDAMIDEIDADQSGTVDFEEFMGVMT [G49Q] | 1.77
33 | ELREAFRLYDKEGNGYISTDVMREILAELDETLSSEDLDAMIDEIDADASGTVDFEEFMGVMT [G49A] | 1.5
34 | ELREAFRLYDKEGNGYISTDVMREILAELDETLSSEDLDAMIDEIDADPSGTVDFEEFMGVMT [G49P] | 0.091
35 | ELREAFRLYDKEGNGYISTDVMREILAELDETLSSEDLDAMIDEIDADCSGTVDFEEFMGVMT [G49C] | 1.71
36 | ELREAFRLYDKEGNGYISTDVMREILAELDETLSSEDLDAMIDEIDADDSGTVDFEEFMGVMT [G49D] | 1.42
37 | ELREAFRLYDKEGNGYISTDVMREILAELDETLSSEDLDAMIDEIDADESGTVDFEEFMGVMT [G49E] | 1.26
38 | ELREAFRLYDKEGNGYISTDVMREILAELDETLSSEDLDAMIDEIDADISGTVDFEEFMGVMT [G49I] | 0.499
39 | ELREAFRLYDKEGNGYISTDVMREILAELDETLSSEDLDAMIDEIDADYSGTVDFEEFMGVMT [G49Y] | 1.04
40 | ELREAFRLYDKEGNGYISTDVMREILAELDETLSSEDLDAMIDEIDADNSGTVDFEEFMGVMT [G49N] | 1.84
41 | ELREAFRLYDKEGNGYISTDVMREILAELDETLSSEDLDAMIDEIDADVSGTVDFEEFMGVMT [G49V] | 0.799
42 | ELREAFRLYDKEGNGYISTDVMREILAELDETLSSEDLDAMIDEIDADKSGTVDFEEFMGVMT [G49K] | 1.99
43 | ELREAFRLYDKEGNGYISTDVMREILAELDETLSSEDLDAMIDEIDADMSGTVDFEEFMGVMT [G49M] | 1.43
44 | ELREAFRLYDKEGNGYISTDVMREILAELDETLSSEDLDAMIDEIDADHSGTVDFEEFMGVMT [G49H] | 1.94

Row | Variant | folding stability dG [kcal/mol]
45 | ELREAFRLYDKEGNGYISTDVMREILAELDETLSSEDLDAMIDEIDADSSGTVDFEEFMGVMT [G49S] | 1.63
46 | ELREAFRLYDKEGNGYISTDVMREILAELDETLSSEDLDAMIDEIDADFSGTVDFEEFMGVMT [G49F] | 1.01
47 | ELREAFRLYDKEGNGYISTDVMREILAELDETLSSEDLDAMIDEIDADWSGTVDFEEFMGVMT [G49W] | 0.635
48 | ELREAFRLYDKEGNGYISTDVMREILAELDETLSSEDLDAMIDEIDAKGSGTVDFEEFMGVMT [D48K] | 1.57
49 | ELREAFRLYDKEGNGYISTDVMREILAELDETLSSEDLDAMIDEIDACGSGTVDFEEFMGVMT [D48C] | 1.4
50 | ELREAFRLYDKEGNGYISTDVMREILAELDETLSSEDLDAMIDEIDANGSGTVDFEEFMGVMT [D48N] | 1.84
51 | ELREAFRLYDKEGNGYISTDVMREILAELDETLSSEDLDAMIDEIDALGSGTVDFEEFMGVMT [D48L] | 1.38
52 | ELREAFRLYDKEGNGYISTDVMREILAELDETLSSEDLDAMIDEIDASGSGTVDFEEFMGVMT [D48S] | 1.57
53 | ELREAFRLYDKEGNGYISTDVMREILAELDETLSSEDLDAMIDEIDAMGSGTVDFEEFMGVMT [D48M] | 1.33
54 | ELREAFRLYDKEGNGYISTDVMREILAELDETLSSEDLDAMIDEIDAIGSGTVDFEEFMGVMT [D48I] | 1.24
55 | ELREAFRLYDKEGNGYISTDVMREILAELDETLSSEDLDAMIDEIDAGGSGTVDFEEFMGVMT [D48G] | 1.37
56 | ELREAFRLYDKEGNGYISTDVMREILAELDETLSSEDLDAMIDEIDAFGSGTVDFEEFMGVMT [D48F] | 1.39
57 | ELREAFRLYDKEGNGYISTDVMREILAELDETLSSEDLDAMIDEIDAQGSGTVDFEEFMGVMT [D48Q] | 1.31
58 | ELREAFRLYDKEGNGYISTDVMREILAELDETLSSEDLDAMIDEIDAWGSGTVDFEEFMGVMT [D48W] | 1.24
59 | ELREAFRLYDKEGNGYISTDVMREILAELDETLSSEDLDAMIDEIDAVGSGTVDFEEFMGVMT [D48V] | 1.18
60 | ELREAFRLYDKEGNGYISTDVMREILAELDETLSSEDLDAMIDEIDAYGSGTVDFEEFMGVMT [D48Y] | 1.3
61 | ELREAFRLYDKEGNGYISTDVMREILAELDETLSSEDLDAMIDEIDAHGSGTVDFEEFMGVMT [D48H] | 1.51
62 | ELREAFRLYDKEGNGYISTDVMREILAELDETLSSEDLDAMIDEIDAPGSGTVDFEEFMGVMT [D48P] | 0.465
63 | ELREAFRLYDKEGNGYISTDVMREILAELDETLSSEDLDAMIDEIDAAGSGTVDFEEFMGVMT [D48A] | 1.48
64 | ELREAFRLYDKEGNGYISTDVMREILAELDETLSSEDLDAMIDEIDARGSGTVDFEEFMGVMT [D48R] | 1.52
65 | ELREAFRLYDKEGNGYISTDVMREILAELDETLSSEDLDAMIDEIDAEGSGTVDFEEFMGVMT [D48E] | 1.48
66 | ELREAFRLYDKEGNGYISTDVMREILAELDETLSSEDLDAMIDEIDATGSGTVDFEEFMGVMT [D48T] | 1.6

Row | Variant | folding stability dG [kcal/mol]
67 | ELREAFRLYDKEGNGYISTDVMREILAELDETLSSEDLDAMIDEIDADGRGTVDFEEFMGVMT [S50R] | 1.61
68 | ELREAFRLYDKEGNGYISTDVMREILAELDETLSSEDLDAMIDEIDADGDGTVDFEEFMGVMT [S50D] | 1.33
69 | ELREAFRLYDKEGNGYISTDVMREILAELDETLSSEDLDAMIDEIDADGTGTVDFEEFMGVMT [S50T] | 1.88
70 | ELREAFRLYDKEGNGYISTDVMREILAELDETLSSEDLDAMIDEIDADGMGTVDFEEFMGVMT [S50M] | 1.29
71 | ELREAFRLYDKEGNGYISTDVMREILAELDETLSSEDLDAMIDEIDADGPGTVDFEEFMGVMT [S50P] | 0.13
72 | ELREAFRLYDKEGNGYISTDVMREILAELDETLSSEDLDAMIDEIDADGCGTVDFEEFMGVMT [S50C] | 1.39
73 | ELREAFRLYDKEGNGYISTDVMREILAELDETLSSEDLDAMIDEIDADGNGTVDFEEFMGVMT [S50N] | 1.67
74 | ELREAFRLYDKEGNGYISTDVMREILAELDETLSSEDLDAMIDEIDADGHGTVDFEEFMGVMT [S50H] | 1.16
75 | ELREAFRLYDKEGNGYISTDVMREILAELDETLSSEDLDAMIDEIDADGKGTVDFEEFMGVMT [S50K] | 1.78
76 | ELREAFRLYDKEGNGYISTDVMREILAELDETLSSEDLDAMIDEIDADGWGTVDFEEFMGVMT [S50W] | 0.737
77 | ELREAFRLYDKEGNGYISTDVMREILAELDETLSSEDLDAMIDEIDADGIGTVDFEEFMGVMT [S50I] | 1.14
78 | ELREAFRLYDKEGNGYISTDVMREILAELDETLSSEDLDAMIDEIDADGLGTVDFEEFMGVMT [S50L] | 1.22
79 | ELREAFRLYDKEGNGYISTDVMREILAELDETLSSEDLDAMIDEIDADGAGTVDFEEFMGVMT [S50A] | 1.11
80 | ELREAFRLYDKEGNGYISTDVMREILAELDETLSSEDLDAMIDEIDADGEGTVDFEEFMGVMT [S50E] | 0.94
81 | ELREAFRLYDKEGNGYISTDVMREILAELDETLSSEDLDAMIDEIDADGFGTVDFEEFMGVMT [S50F] | 0.991
82 | ELREAFRLYDKEGNGYISTDVMREILAELDETLSSEDLDAMIDEIDADGVGTVDFEEFMGVMT [S50V] | 1.18
83 | ELREAFRLYDKEGNGYISTDVMREILAELDETLSSEDLDAMIDEIDADGGGTVDFEEFMGVMT [S50G] | 1.05
84 | ELREAFRLYDKEGNGYISTDVMREILAELDETLSSEDLDAMIDEIDADGQGTVDFEEFMGVMT [S50Q] | 1.12
85 | ELREAFRLYDKEGNGYISTDVMREILAELDETLSSEDLDAMIDEIDADGYGTVDFEEFMGVMT [S50Y] | 1.05
